Fold weaker binding than RD1-MART1^HIGH data for one substance are collected here from publication PMC4938795.

The target in the test is RD1-MART1^HIGH Y93Fα, yeast displayed (human). As to the kind of experiment: flow cytometry on cells.

The substance “MART1/HLA-A2 monomer (from UniProt P61769 21-119) (peptide-MHC)” had a fold weaker binding than RD1-MART1^HIGH of 10 fold.
